Data set [1] deals with T1, C-reactive protein (UniProt P02741 19-224).
T1 sequence: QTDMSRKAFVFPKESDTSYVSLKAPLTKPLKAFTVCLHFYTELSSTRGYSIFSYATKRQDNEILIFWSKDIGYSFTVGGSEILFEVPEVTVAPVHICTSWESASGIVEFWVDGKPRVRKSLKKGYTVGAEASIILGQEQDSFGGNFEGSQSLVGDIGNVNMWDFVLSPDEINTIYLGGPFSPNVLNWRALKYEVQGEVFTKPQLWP
Briefly: pull-down.

For data set [2], the target named is T1, C-reactive protein. Briefly: pull-down. This is another data set of the same source.

Like-named read-outs stand apart in the source and are kept apart here.

This is an account of results in article PMC2891049.

B1: MB-P (PDGF-BB sensing aptamer) (structured_DNA)
DNA: GATGTCCACGAGGTCTCTGCGGCATCAACAATCTCGAATTTTTTACTCAGGGCACTGCAAGCAATTGTGGTCCCAATGGGCTGAGTATCGTACGCTGCAGGTCGAC
For the molecule B1, in the data set with C-reactive protein [1], the binding result is “no binding”.

B2: MB-T (thrombin sensing aptamer) (structured_DNA)
DNA: GATGTCCACGAGGTCTCTATTGCATTCGCACTTCCGATTTTTTCAGTCCGTGGTAGGGCAGGTTGGGGTGACTCGTACGCTGCAGGTCGAC
For B2, the binding result in the data set with C-reactive protein [2] is recorded as “no binding”.
